In publication PMC10397247:
Like-named read-outs stand apart in the source and are kept apart here.

T1: P2-AA-1HAA-D
T1 chain: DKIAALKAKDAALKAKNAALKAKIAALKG

T2: P2-AA-1HAA-E
T2 chain: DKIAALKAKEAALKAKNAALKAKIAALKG

T3: P2-AA-1HAA-I
T3 chain: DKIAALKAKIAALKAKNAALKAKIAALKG

T4: P2-AA-1HAA-R
T4 chain: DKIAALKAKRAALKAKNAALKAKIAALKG

T5: P2-AA-1HAA-S
T5 chain: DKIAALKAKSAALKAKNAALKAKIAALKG

T6: P2-AA-1HAA-T
T6 chain: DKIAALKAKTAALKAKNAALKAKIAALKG

T7: P2-AA-1HAA-V
T7 chain: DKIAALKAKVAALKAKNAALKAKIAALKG

T8: P2-AA
T8 chain: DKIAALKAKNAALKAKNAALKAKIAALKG

T9: P7A-bA
T9 chain: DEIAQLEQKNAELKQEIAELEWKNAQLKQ

T10: P8A-bA
T10 chain: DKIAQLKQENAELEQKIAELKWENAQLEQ

T11: P9A-bA
T11 chain: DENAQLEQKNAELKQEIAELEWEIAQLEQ

T12: 4H2760-bH
T12 chain: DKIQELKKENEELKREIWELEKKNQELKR

T13: 4H2859-bH
T13 chain: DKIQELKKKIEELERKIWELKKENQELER

T14: 4H2931-bH
T14 chain: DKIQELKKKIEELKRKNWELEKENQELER

T15: 4H3041-bH
T15 chain: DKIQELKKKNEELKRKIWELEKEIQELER

T16: 4H3297-bH
T16 chain: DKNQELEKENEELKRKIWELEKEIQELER

T17: 4H3364-bH
T17 chain: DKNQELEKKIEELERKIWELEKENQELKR

T18: 4H3381-bH
T18 chain: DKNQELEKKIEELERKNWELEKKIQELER

T19: 4H349-bH
T19 chain: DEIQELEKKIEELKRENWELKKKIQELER

T20: 4H40-bH
T20 chain: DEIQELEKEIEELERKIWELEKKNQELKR

T21: 4H4073-bA
T21 chain: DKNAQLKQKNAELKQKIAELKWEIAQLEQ

T22: 4H56-bH
T22 chain: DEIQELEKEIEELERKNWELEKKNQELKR

T23: 4H730-bH
T23 chain: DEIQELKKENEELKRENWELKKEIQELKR

T24: 4H796-bH
T24 chain: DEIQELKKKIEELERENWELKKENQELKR

T25: 4H932-bH
T25 chain: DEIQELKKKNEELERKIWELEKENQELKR

T26: 4H949-bH
T26 chain: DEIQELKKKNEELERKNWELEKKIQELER

T27: O16-bN
T27 chain: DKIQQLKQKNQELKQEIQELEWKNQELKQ


Tests used:
P2-AA-1HAA-D = molecular target: T1, P2-AA-1HAA-D; experiment: two-hybrid library CCmax;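 further: natural log of median RNA to DNA barcode read ratio; higher means stronger binding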
P2-AA-1HAA-E = molecular target: T2, P2-AA-1HAA-E; experiment: two-hybrid library CCmax; details: mean of both orientations;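 further: natural log of median RNA to DNA barcode read ratio; higher means stronger binding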
P2-AA-1HAA-I = molecular target: T3, P2-AA-1HAA-I; experiment: two-hybrid library CCmax; details: mean of both orientations;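 further: natural log of median RNA to DNA barcode read ratio; higher means stronger binding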
P2-AA-1HAA-R = molecular target: T4, P2-AA-1HAA-R; experiment: two-hybrid library CCmax; details: mean of both orientations;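 further: natural log of median RNA to DNA barcode read ratio; higher means stronger binding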
P2-AA-1HAA-S = molecular target: T5, P2-AA-1HAA-S; experiment: two-hybrid library CCmax; details: mean of both orientations
P2-AA-1HAA-T = molecular target: T6, P2-AA-1HAA-T; experiment: two-hybrid library CCmax; details: mean of both orientations
P2-AA-1HAA-V = molecular target: T7, P2-AA-1HAA-V; experiment: two-hybrid library CCmax; details: mean of both orientations
P2-AA = molecular target: T8, P2-AA; experiment: two-hybrid library CCmax; details: mean of both orientations
P7A-bA = molecular target: T9, P7A-bA; experiment: two-hybrid library CCNG1
P8A-bA = molecular target: T10, P8A-bA; experiment: two-hybrid library CCNG1
P9A-bA = molecular target: T11, P9A-bA; experiment: two-hybrid library CCNG1
4H2760-bH = molecular target: T12, 4H2760-bH; experiment: two-hybrid library CCNG1
4H2859-bH = molecular target: T13, 4H2859-bH; experiment: two-hybrid library CCNG1
4H2931-bH = molecular target: T14, 4H2931-bH; experiment: two-hybrid library CCNG1
4H3041-bH = molecular target: T15, 4H3041-bH; experiment: two-hybrid library CCNG1
4H3297-bH = molecular target: T16, 4H3297-bH; experiment: two-hybrid library CCNG1
4H3364-bH = molecular target: T17, 4H3364-bH; experiment: two-hybrid library CCNG1
4H3381-bH = molecular target: T18, 4H3381-bH; experiment: two-hybrid library CCNG1
4H349-bH = molecular target: T19, 4H349-bH; experiment: two-hybrid library CCNG1
4H40-bH = molecular target: T20, 4H40-bH; experiment: two-hybrid library CCNG1
4H4073-bA = molecular target: T21, 4H4073-bA; experiment: two-hybrid library CCNG1
4H56-bH = molecular target: T22, 4H56-bH; experiment: two-hybrid library CCNG1
4H730-bH = molecular target: T23, 4H730-bH; experiment: two-hybrid library CCNG1
4H796-bH = molecular target: T24, 4H796-bH; experiment: two-hybrid library CCNG1
4H932-bH = molecular target: T25, 4H932-bH; experiment: two-hybrid library CCNG1
4H949-bH = molecular target: T26, 4H949-bH; experiment: two-hybrid library CCNG1
O16-bN = molecular target: T27, O16-bN; experiment: two-hybrid library CCNG1

interaction score (P2-AA-1HAA-D; mean of both orientations)	interaction score (P2-AA-1HAA-E)	interaction score (P2-AA-1HAA-I)	interaction score (P2-AA-1HAA-R)	interaction score (P2-AA-1HAA-S)	interaction score (P2-AA-1HAA-T)	interaction score (P2-AA-1HAA-V)	interaction score (P7A-bA)	interaction score (P8A-bA)	interaction score (P9A-bA)	Binder	other results
1.87	1.86	2.26	1.48	2	1.64	2.11				DEIAALEAEAAALEAENAALEAEIAALEG [P1-AA-1HAA-A]	interaction score (P2-AA): 2.29
0.24	0.472	1.82	1.56	1.97	2.06	2.1				DEIAALEAEKAALEAENAALEAEIAALEG [P1-AA-1HAA-K]	
							-0.889	1.79	-0.632	DEIAQLEQKNAELKQEIAELEWKNAQLKQ [P7A-bA]	
	0.913	1.98	1.34	1.91	2.13	1.33				DEIAALEAEHAALEAENAALEAEIAALEG [P1-AA-1HAA-H]	interaction score (P2-AA-1HAA-D): 1.5
							0.285	0.137	-1.98	DKNAQLKQEIAELEQENAELEWKIAQLKQ [P6A-bA]	
										DKIQELKKENEELKREIWELEKKNQELKR [4H2760-bH]	interaction score (4H2760-bH): 1.46; interaction score (4H2859-bH): 0.64; interaction score (4H2931-bH): -0.365; interaction score (4H3041-bH): 0.73; interaction score (4H3297-bH): 1.12; interaction score (4H3364-bH): 0.427; interaction score (4H3381-bH): 0.571; interaction score (4H349-bH): 0.171; interaction score (4H40-bH): -1.45; interaction score (4H4073-bA): -0.277; interaction score (4H56-bH): -1.85; interaction score (4H730-bH): -0.92; interaction score (4H796-bH): 0.41; interaction score (4H932-bH): -1.86; interaction score (4H949-bH): -0.189; interaction score (O16-bN): 0.693
